The source of these data is PMC12724015.

In the experiment the target is peptide derived from subunit 5 of the pertussis toxin (PTX) (…) (Bordetella pertussis).

For the substance “Bordetella pertussis DsbA (BperDsbA), mature, oxidized (from UniProt Q7W0K2 28-209) (enzyme)”, the fraction of reduced BperDsbA (AMS alkylation, SDS-PAGE, densitometry) after 5, 10 and 30 s of 50 uM oxidized BperDsbA with 50 uM PTX peptide worked out at 90%.
